Data as given in patent US7879338B2, “Vectors and methods for immunization against norovirus using transgenic plants” (Boyce Thompson Institute for Plant Research, priority 2003, dated 2011).

Key:
[1] = low pH, lyophilized, stored long term at 4° C.; cited from earlier work
[2] = tested on: mice; assay: Oral immunogenicity of tomato sNV110-2 powder versus gavaged iNV VLPs; type: in vivo, mouse
Experimental: FIGS. 23A-B show the immunologic response of mice to rNV-transgenic tomato. […] Five mice in each group ingested 1.2 g, 1.5 g or 2.3 g of tomato powder mixed with 0.6 volume of water, on days 1, 4, 17, and 20. One group was gavaged with 100 g iNV VLPs each. Nontransgenic tomato powder was fed to a negative control group. […] Standard errors were calculated on the log-transformed titers.
Three doses of tomato sNV110-2 powder (1.5 gm, 2.5 gm, or 5 gm) were provided on days 1, 4, 17, and 20. The actual doses ingested by each mouse were, on average, 1.2, 1.5 and 2.2 gm each feeding, containing 192, 240, and 352 μg rNV/dose, respectively, or 60, 75, and 1101 g VLPs/dose. Nontransgenic tomato TA234 powder (5 gram per mouse per feed) were given to one control group (−), and 100 μg purified iNV VLPs were orally administered by gavage to another control group (+). Serum and fecal antibodies were measured by ELISA, and GMTs were calculated for each group of mice. All pre-immune serum and fecal samples were negative for rNV-specific IgG and IgA, as were control group (−) (titers<20; the lowest dilution tested). […] No significant difference (p=0.05) in primary titers was observed among groups. […] Intestinal antibody responses reached their peaks at 27 dpi with IgA GMTs ranging from 10681 to 19127. […] In contrast, the control i-rNV gavage group had their maximum levels of IgG GMT=826 and IgA GMT=1748, which were 8.2 and 6.2 fold less than the group that ingested 1.2 gram of sNV110-2 powder (p<0.0183). Further, long-term serum antibody responses declined to baseline in 3 months (IgG GMT=58 at 87 dpi).

[3] = day 11, gavage of purified iNV VLPs (100 μg)

B1: iNV VLPs: purified insect cell (baculovirus) derived recombinant Norwalk virus virus-like particles, control reference antigen (protein)
chain: MMMASKDATSSVDGASGAGQLVPEVNASDPLAMDPVAGSSTAVATAGQVNPIDPWIINNFVQAPQGEFTISPNNTPGDVLFDLSLGPHLNPFLLHLSQMYNGWVGNMRVRIMLAGNAFTAGKIIVSCIPPGFGSHNLTIAQATLFPHVIADVRTLDPIEVPLEDVRNVLFHNNDRNQQTMRLVCMLYTPLRTGGGTGDSFVVAGRVMTCPSPDFNFLFLVPPTVEQKTRPFTLPNLPLSSLSNSRAPLPISSMGISPDNVQSVQFQNGRCTLDGRLVGTTPVSLSHVAKIRGTSNGTVINLTELDGTPFHPFEGPAPIGFPDLGGCDWHINMTQFGHSSQTQYDVDTTPDTFVPHLGSIQANGIGSGNYVGVLSWISPPSHPSGSQVDLWKIPNYGSSITEATHLAPSVYPPGFGEVLVFFMSKMPGPGAYNLPCLLPQEYISHLASEQAPTVGEAALLHYVDPDTGRNLGEFKAYPDGFLTCVPNGASSGPQQLPINGVFVFVSWVSRFYQLKPVGTASSARGRLGLRR
In the case of B1, the stability [1] is listed as “stable”, the “IgA GMT” value [2, 3] is listed as 62 and the “IgG GMT” value [2, 3] is listed as 18. For the same molecule, the “mice with primary intestinal antibody responses” value [2, 3] was 2 of 5, the “mice with primary serum antibody responses” value [2, 3] was 1 of 5 and the “maximum IgA GMT” value ([2]; i-rNV gavage control group) was 1748. The “maximum IgG GMT” value ([2]; i-rNV gavage control group) was 826, the “long-term IgG GMT” value ([2]; i-rNV gavage group, 87 dpi) was 58 and the “maximum IgA GMT, fold less than group ingesting 1.2 gram sNV110-2 powder” value ([2]; p<0.0183) was 6.2 fold. For the same molecule, the “maximum IgG GMT, fold less than group ingesting 1.2 gram sNV110-2 powder” value ([2]; p<0.0183) was 8.2 fold.
